# Source: the RNAGym collection of RNA variant scans (doi:10.1093/nar/gkz1192)
# B1: CPEB3 Ribozyme (parent)
# chain: UAACAGGGGGCCACAGCAGAAGCGUUCACGUCGCAGCCCCUGUCAGAUUCUGGUGAAUCUGCGAAUUCUGCUGUAUAUCUC
# Variants of: B1
# Experiment: self-cleavage, relative activity (ratio to wild type); higher = more cleavage; in vitro, sequencing
# Method in brief: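 Barcoded CPEB3 ribozyme mutants, produced by rounds of error-prone PCR, self-cleaved while being transcribed with T7 RNA polymerase for 5 hours at 37°C and during a subsequent 15 min DNase I step before EDTA was added. Sequencing of template-switched cDNA on Illumina gave cleaved and total reads, and DNA sequencing assigned barcodes to variants. Each variant's relative activity is its cleaved/total read fraction divided by the unmutated ribozyme's fraction, averaged across three batches. A variant needed a minimum of 5 reads.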
row,Variant,self-cleavage
1,UAACAGGGGGCCACAGCAGAAGCGUUCACGUCGCUGCCCCUGUCAGAUUAUGGUGAAUCUGCGAAUUCUGCUGUAUAUCUC [A35U C50A],0.43
2,UAACAGGGGGCCACAGCAGAAGCGUUCACGUCGCUGCCUCUGUCAGAUUCUGGUGAAUCUGCGAAUUCUGCUGUAUAUCUC [A35U C39U],0.49
3,UAACAGGGGGCCACAGCAGAAGCGUUCACGUCGCUGCCACUGUCAGAUUCUGGUGAAUCUGCGAAUUCUGCUGUAUAUCUC [A35U C39A],0.27
4,UAACAGGGGGCCACAGCAGAAGCGUUCACGUCGCUGCCCCUGUCGGAUUCUGGUGAAUCUGCGAAUUCUGCUGUAUAUCUC [A35U A45G],0.32
5,UAACAGGGGGCCACAGCAGAAGCGUUCACGUCGCUGCCCCUGUCCGAUUCUGGUGAAUCUGCGAAUUCUGCUGUAUAUCUC [A35U A45C],0.18
6,UAACAGGGGGCCACAGCAGAAGCGUUCACGUCGCUGCCCCUGUCUGAUUCUGGUGAAUCUGCGAAUUCUGCUGUAUAUCUC [A35U A45U],0.32
7,UAACAGGGGGCCACAGCAGAAGCGUUCACGUCGCUUCCCCUGUCAGAUUCUGGUGAAUCUGCGAAUUCUGCUGUAUAUCUC [A35U G36U],0.1
8,UAACAGGGGGCCACAGCAGAAGCGUUCACGUCGCUACCCCUGUCAGAUUCUGGUGAAUCUGCGAAUUCUGCUGUAUAUCUC [A35U G36A],0.19
9,UAACAGGGGGCCACAGCAGAAGCGUUCACGUCGCUGCCCCUGUCAGAUUCUGGUCAAUCUGCGAAUUCUGCUGUAUAUCUC [A35U G55C],0.47
10,UAACAGGGGGCCACAGCAGAAGCGUUCACGUCGCUGCCCCUGUCAGAUUCUGGUUAAUCUGCGAAUUCUGCUGUAUAUCUC [A35U G55U],0.43
11,UAACAGGGGGCCACAGCAGAAGCGUUCACGUCGCUGCCCGUGUCAGAUUCUGGUGAAUCUGCGAAUUCUGCUGUAUAUCUC [A35U C40G],0.17
12,UAACAGGGGGCCACAGCAGAAGCGUUCACGUCGCUGCCCUUGUCAGAUUCUGGUGAAUCUGCGAAUUCUGCUGUAUAUCUC [A35U C40U],0.37
13,UAACAGGGGGCCACAGCAGAAGCGUUCACGUCGCUGCCCAUGUCAGAUUCUGGUGAAUCUGCGAAUUCUGCUGUAUAUCUC [A35U C40A],0.09
14,UAACAGGGGGCCACAGCAGAAGCGUUCACGUCGCUGCCCCUGUCAGAUUCUGGUGAAUCUUCGAAUUCUGCUGUAUAUCUC [A35U G61U],0.42
15,UAACAGGGGGCCACAGCAGAAGCGUUCACGUCGCUGCCCCUGUCAGAUUCUGGUGAAUCUACGAAUUCUGCUGUAUAUCUC [A35U G61A],0.27
16,UAACAGGGGGCCACAGCAGAAGCGUUCACGUCGCUGCCCCUGUCAGAUUCUGGUGAAUCUGCGAAUUCUGCUGUAUUUCUC [A35U A77U],0.59
17,UAACAGGGGGCCACAGCAGAAGCGUUCACGUCGCUGCCCCUGUCAGAUUCUGGUGAAUCUGCGAAUUCUGCUGUAUGUCUC [A35U A77G],0.57

row,Variant,self-cleavage
1,UAACAGGGGGCCACAGCAGAAGCGUUCACGUCGCUGCCCCUGUCAGAUUCUGGUGAAUCUGCGAUUUCUGCUGUAUAUCUC [A35U A65U],0.26
2,UAACAGGGGGCCACAGCAGAAGCGUUCACGUCGCUGCCCCUGUCAGAUUCUGGUGAAUCUGCGAGUUCUGCUGUAUAUCUC [A35U A65G],0.26
3,UAACAGGGGGCCACAGCAGAAGCGUUCACGUCGCUGCCCCUGUCAGAUUCUGGUGAAUCUGCGACUUCUGCUGUAUAUCUC [A35U A65C],0.45
4,UAACAGGGGGCCACAGCAGAAGCGUUCACGUCGCUGCCCCUGUCAGAUUCUGGUGAAUCUGCGAAUUAUGCUGUAUAUCUC [A35U C68A],0.11
5,UAACAGGGGGCCACAGCAGAAGCGUUCACGUCGCUGCCCCUGUCAGAUUCUGGUGAAUCUGCGAAUUCUACUGUAUAUCUC [A35U G70A],0.2
6,UAACAGGGGGCCACAGCAGAAGCGUUCACGUCGCUGCCCCUGUCAGAUUCUGGUGAAUCUGCGAAUUCUCCUGUAUAUCUC [A35U G70C],0.34
7,UAACAGGGGGCCACAGCAGAAGCGUUCACGUCGCUGCCCCUGUCAGAUUCUGGUGAAUCUGCGAAUUCUGAUGUAUAUCUC [A35U C71A],0.13
8,UAACAGGGGGCCACAGCAGAAGCGUUCACGUCGCUGCCCCUGUCAGAUUCUGGUGAAUCUGCGAAUUCUGUUGUAUAUCUC [A35U C71U],0.37
9,UAACAGGGGGCCACAGCAGAAGCGUUCACGUCGCUGCCCCUGUCAGAUUCUGGUGAAUCUGCGAAUUCUGGUGUAUAUCUC [A35U C71G],0.15
10,UAACAGGGGGCCACAGCAGAAGCGUUCACGUCGCUGCCCCUGUCAGAUUCUGGUGAAUCUGCGAAUUCUGCUGUAUAUUUC [A35U C79U],0.64
11,UAACAGGGGGCCACAGCAGAAGCGUUCACGUCGCUGCACCUGUCAGAUUCUGGUGAAUCUGCGAAUUCUGCUGUAUAUCUC [A35U C38A],0.21
12,UAACAGGGGGCCACAGCAGAAGCGUUCACGUCGCUGCUCCUGUCAGAUUCUGGUGAAUCUGCGAAUUCUGCUGUAUAUCUC [A35U C38U],0.47
13,UAACAGGGGGCCACAGCAGAAGCGUUCACGUCGCUGUCCCUGUCAGAUUCUGGUGAAUCUGCGAAUUCUGCUGUAUAUCUC [A35U C37U],0.28
14,UAACAGGGGGCCACAGCAGAAGCGUUCACGUCGCUGCCCCUGUCAAAUUCUGGUGAAUCUGCGAAUUCUGCUGUAUAUCUC [A35U G46A],0.16
15,UAACAGGGGGCCACAGCAGAAGCGUUCACGUCGCUGCCCCUGUCAUAUUCUGGUGAAUCUGCGAAUUCUGCUGUAUAUCUC [A35U G46U],0.19
16,UAACAGGGGGCCACAGCAGAAGCGUUCACGUCGCUGCCCCUGUCAGAUUCUGGUGAAUCUGCGCAUUCUGCUGUAUAUCUC [A35U A64C],0.16
17,UAACAGGGGGCCACAGCAGAAGCGUUCACGUCGCUGCCCCUGUCAGAUUCUGGUGAAUCUGCGUAUUCUGCUGUAUAUCUC [A35U A64U],0.48
